This note sets out measurements from paper PMC9236144 (Molecular Biology of the Cell, 2022).

The target of this experiment is Bni1FH1C (Bni1 residues 1227-1953) (S. cerevisiae, UniProt P41832 1227-1953). As to the kind of experiment: fluorescence polarisation.
Sequence of Bni1FH1C (Bni1 residues 1227-1953) (P41832 1227-1953): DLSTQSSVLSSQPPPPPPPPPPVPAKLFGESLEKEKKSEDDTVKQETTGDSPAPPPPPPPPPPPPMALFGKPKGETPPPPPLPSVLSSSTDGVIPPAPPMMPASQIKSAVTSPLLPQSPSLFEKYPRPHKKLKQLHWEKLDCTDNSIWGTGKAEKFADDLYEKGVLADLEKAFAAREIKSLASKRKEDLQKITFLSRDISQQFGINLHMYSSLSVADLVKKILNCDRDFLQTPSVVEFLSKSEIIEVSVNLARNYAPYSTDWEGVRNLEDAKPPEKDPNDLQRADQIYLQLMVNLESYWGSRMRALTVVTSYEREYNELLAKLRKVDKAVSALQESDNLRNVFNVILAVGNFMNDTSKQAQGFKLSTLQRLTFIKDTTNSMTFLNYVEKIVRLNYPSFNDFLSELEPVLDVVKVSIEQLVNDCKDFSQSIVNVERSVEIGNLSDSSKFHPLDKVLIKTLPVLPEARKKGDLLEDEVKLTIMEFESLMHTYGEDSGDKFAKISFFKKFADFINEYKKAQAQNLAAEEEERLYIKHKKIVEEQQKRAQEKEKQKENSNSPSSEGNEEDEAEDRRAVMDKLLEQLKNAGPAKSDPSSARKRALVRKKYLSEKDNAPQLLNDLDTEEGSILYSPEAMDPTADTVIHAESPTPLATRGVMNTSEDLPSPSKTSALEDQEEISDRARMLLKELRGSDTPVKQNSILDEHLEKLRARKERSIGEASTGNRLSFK

B1: Bud6C (Bud6 residues 550-789) (domain or fragment, S. cerevisiae, UniProt P41697 550-788, looked up)
chain: AKNSSNRMYMEKSQTELGDLSDTLLSKVDDLQDVIEIMRKDVAERRSQPAKKKLETVSKDLENAQADVLKLQEFIDTEKPHWKKTWEAELDKVCEEQQFLTLQEELILDLKEDLGKALETFDLIKLCCEEQEKNPSRSKSNPILPIMRPGTFNQVREQVMVAVQSLNPDHDSRVEAIDKAEKMWEMERKLKASNEFDDELENFVGNSNLKKSGGFEEVERIRKQKDEANLRAYFGPGFT
Regarding B1, the binding result was “binds”.
